Data as given in US20240279281A1, “Peptide Inhibitors of Interleukin-23 Receptor” (Janssen Pharmaceutica NV, priority 2023, published 2024).
Blank lines part the entries; values can stand above or below the binder they belong to. Starred links: 1 amine or outer side, 2 acyl side, 3 side chain; linkers in the order of their positions; H or OH if unused. Positions of bridges follow the written chain, without caps; N, C: chain ends. Non-standard residues stand in square brackets, D forms with d. No end group written: not given here. X7 = 2‑amino‑3‑(5-methylpyridin-3-yl)propanoic acid, Cc1cncc(CC(N[*:1])C(=O)[*:2])c1; Trp(7-(3-AcNH-Ph)) = CC(=O)Nc1cccc(-c2cccc3c(C[C@H](N)C(=O)O)c[nH]c23)c1; 2Nal(6-OH) = N[C@@H](Cc1ccc2cc(O)ccc2c1)C(=O)O; Trp(7-Me) = Cc1cccc2c(C[C@H](N)C(=O)O)c[nH]c12; 3Pal(5-Me) = Cc1cncc(C[C@H](N)C(=O)O)c1; AEF = NCCOc1ccc(C[C@H](N)C(=O)O)cc1; αMeF = C[C@](N)(Cc1ccccc1)C(=O)O; 3Pal = N[C@@H](Cc1cccnc1)C(=O)O; Pen = CC(C)(S)[C@H](N)C(=O)O; dDab = NCC[C@@H](N)C(=O)O; Thp = NC1(C(=O)O)CCOCC1; Abu = CC[C@H](N)C(=O)O; Ahp = NCCCCCCC(=O)O; Sar = CNCC(=O)O

Target: T1, interleukin-23 receptor (IL-23R), Q5VWK5
T1 chain: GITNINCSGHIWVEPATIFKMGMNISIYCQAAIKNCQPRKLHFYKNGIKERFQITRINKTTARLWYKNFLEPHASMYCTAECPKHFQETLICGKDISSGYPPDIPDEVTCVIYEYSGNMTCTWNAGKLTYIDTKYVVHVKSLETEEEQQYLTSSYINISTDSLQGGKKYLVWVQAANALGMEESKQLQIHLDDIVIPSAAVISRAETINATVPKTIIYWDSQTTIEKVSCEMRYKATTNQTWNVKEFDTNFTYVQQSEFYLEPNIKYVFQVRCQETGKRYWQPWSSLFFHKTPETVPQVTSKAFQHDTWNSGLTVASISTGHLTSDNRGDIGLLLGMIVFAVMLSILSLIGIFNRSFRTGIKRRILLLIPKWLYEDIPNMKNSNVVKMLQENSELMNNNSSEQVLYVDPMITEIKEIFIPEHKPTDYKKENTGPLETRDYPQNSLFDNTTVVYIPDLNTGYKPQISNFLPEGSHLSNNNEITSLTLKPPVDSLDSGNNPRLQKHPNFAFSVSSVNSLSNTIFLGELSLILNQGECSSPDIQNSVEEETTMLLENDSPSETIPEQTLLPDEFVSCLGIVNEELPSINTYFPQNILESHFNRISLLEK
Test: cell-based or functional assay

Binder: R[Pen]NT[Trp(7-Me)]K(Ac)[Pen][2‑amino‑3‑(4-(2-aminoethoxy)phenyl)propanoic acid][2‑amino‑3‑(6-hydroxynaphthalen-2-yl)propanoic acid][Thp]K(Ac)N[X7][Sar] (disulfide 2-7 (inferred); ends not checked) [SEQ ID NO: 49]
IL23R Reporter Assay IC50: < 10 nM

Binder: [dK](Me3)[Pen]NT[Trp(7-Me)]K(Ac)[Pen][2‑amino‑3‑(4-(2-aminoethoxy)phenyl)propanoic acid][2‑amino‑3‑(6-hydroxynaphthalen-2-yl)propanoic acid][Thp]EN[X7][Sar] (disulfide 2-7 (inferred); ends not checked) [SEQ ID NO: 50]
IL23R Reporter Assay IC50: < 10 nM

Binder: R[Pen]NT[Trp(7-(3-AcNH-Ph))]K(Ac)[Pen][AEF][2Nal(6-OH)][Thp]EN[3Pal(5-Me)][Sar] (disulfide 2-7 (inferred); ends not checked) [SEQ ID NO: 53]
IL23R Reporter Assay IC50: < 10 nM

Binder: [Pen]ET[Trp(7-Me)]K(Ac)[Pen][AEF][2Nal(6-OH)][Thp]EN[3Pal][Sar] (not fully specified (bridges); ends and bridges not checked) [SEQ ID NO: 397]
IL23R Reporter Assay IC50: < 10 nM
PBMC pSTAT3 IC50: < 0.01 nM

Binder: [Ahp][Pen]NT[Trp(7-Me)]K(Ac)[Pen][AEF][2Nal(6-OH)][Thp]EN[3Pal][Sar] (not fully specified (bridges); ends and bridges not checked) [SEQ ID NO: 417]
IL23R Reporter Assay IC50: < 10 nM
PBMC pSTAT3 IC50: < 0.01 nM

Binder: R[Pen]ET[Trp(7-Me)]K(Ac)[Pen][AEF][2Nal(6-OH)][Thp]K(Ac)N[3Pal][Sar] (not fully specified (bridges); ends and bridges not checked) [SEQ ID NO: 422]
IL23R Reporter Assay IC50: < 10 nM
PBMC pSTAT3 IC50: < 0.01 nM

B1: SEQ ID NO: 424 (peptide)
peptide: R[Pen]NT[Trp(7-Me)]K(Ac)[Pen][AEF][2Nal(6-OH)][Thp]KN[3Pal][Sar]
modifications: not fully specified (residue 11, bridges); ends and bridges not checked; also: K11: lipidated lysine
IL23R Reporter Assay IC50: > 100 nM
PBMC pSTAT3 IC50: < 1 nM

Binder: R[Pen]NT[Trp(7-Me)]K(Ac)[Pen][AEF][2Nal(6-OH)][Thp]EN[3Pal(5-Me)][Sar] (disulfide 2-7 (inferred); ends not checked) [SEQ ID NO: 52]
IL23R Reporter Assay IC50: < 10 nM

Binder: R[Pen]NT[Trp(7-Me)]K(Ac)[Pen][AEF][2Nal(6-OH)][Thp]EN[3Pal(5-Me)][Sar] (disulfide 2-7 (inferred); ends not checked) [SEQ ID NO: 51]
IL23R Reporter Assay IC50: < 10 nM

Binder: [dDab](Ac)[Abu]NTWQC[AEF][2Nal(6-OH)][Thp]CN[3Pal][Sar] (not fully specified (bridges); ends and bridges not checked) [SEQ ID NO: 413]
IL23R Reporter Assay IC50: < 10 nM
PBMC pSTAT3 IC50: < 0.1 nM

The next lines start with the values.

IL23R Reporter Assay IC50: > 100 nM
PBMC pSTAT3 IC50: > 1 nM
Binder: R[Pen]NT[Trp(7-Me)]K(Ac)[Pen][2‑amino‑3‑(4-(2-aminoethoxy)phenyl)propanoic acid][2‑amino‑3‑(6-(2-hydroxyphenyl)naphthalen-2-yl)propanoic acid][Thp]EN[Thp] (not fully specified (bridges); ends and bridges not checked) [SEQ ID NO: 431]

IL23R Reporter Assay IC50: > 100 nM
PBMC pSTAT3 IC50: > 1 nM
Binder: R[Pen]NT[Trp(7-Me)]K(Ac)[Pen][2‑amino‑3‑(4-(2-aminoethoxy)phenyl)propanoic acid][2‑amino‑3‑(5-methoxynaphthalen-2-yl)propanoic acid][Thp]EN[αMeF] (disulfide 2-7 (inferred); ends not checked) [SEQ ID NO: 437]

IL23R Reporter Assay IC50: > 100 nM
PBMC pSTAT3 IC50: > 1 nM
Binder: R[Pen]NT[Trp(7-Me)]K(Ac)[Pen][2‑amino‑3‑(4-(2-aminoethoxy)phenyl)propanoic acid][2‑amino‑3‑(6-hydroxynaphthalen-2-yl)propanoic acid][Thp]ENA[Sar] (not fully specified (bridges); ends and bridges not checked) [SEQ ID NO: 429]

IL23R Reporter Assay IC50: > 100 nM
PBMC pSTAT3 IC50: < 1 nM
Binder: [Ahp][Pen]NT[Trp(7-Me)]K(Ac)[Pen][2‑amino‑3‑(4-(2-aminoethoxy)phenyl)propanoic acid][2‑amino‑3‑(6-hydroxynaphthalen-2-yl)propanoic acid][Thp]EN[3Pal][Sar] (disulfide 2-7 (inferred); ends not checked) [SEQ ID NO: 447]

IL23R Reporter Assay IC50: > 100 nM
PBMC pSTAT3 IC50: < 1 nM
Binder: R[Pen]NT[Trp(7-Me)]K(Ac)[Pen][2‑amino‑3‑(4-(2-aminoethoxy)phenyl)propanoic acid][2‑amino‑3‑(5-carbamoylnaphthalen-2-yl)propanoic acid][Thp]EN[αMeF] (disulfide 2-7 (inferred); ends not checked) [SEQ ID NO: 439]

IL23R Reporter Assay IC50: > 100 nM
PBMC pSTAT3 IC50: > 1 nM
Binder: R[Pen]QTWQ[Pen][2‑amino‑3‑(4-(2-aminoethoxy)phenyl)propanoic acid][2‑amino‑3‑(6-hydroxynaphthalen-2-yl)propanoic acid][Thp]EN[Thp] (not fully specified (bridges); ends and bridges not checked) [SEQ ID NO: 430]

IL23R Reporter Assay IC50: < 10 nM
PBMC pSTAT3 IC50: < 0.1 nM
Binder: R[Pen]NT[Trp(7-Me)]K(Ac)[Pen][2‑amino‑3‑(4-(2-aminoethoxy)phenyl)propanoic acid][2‑amino‑3‑(6-hydroxynaphthalen-2-yl)propanoic acid][Thp]EN[2‑amino‑3‑(5-carbamoylpyridin-3-yl)propanoic acid][Sar] (disulfide 2-7 (inferred); ends not checked) [SEQ ID NO: 441]

IL23R Reporter Assay IC50: > 100 nM
PBMC pSTAT3 IC50: > 1 nM
Binder: R[Pen]NT[Trp(7-Me)]K(Ac)[Pen][2‑amino‑3‑(4-(2-aminoethoxy)phenyl)propanoic acid][2‑amino‑3‑(5-methylnaphthalen-2-yl)propanoic acid][Thp]EN[αMeF] (disulfide 2-7 (inferred); ends not checked) [SEQ ID NO: 445]
